The Immune Epitope Database (IEDB)
Blank lines part the entries; values can stand above or below the sequence they belong to.

Assays:
HLA-A*23:01 = experiment: IEDB peptide-MHC binding, purified MHC/competitive/radioactivity; filed as Kd, often an IC50 or EC50 that approximates it; ≥ and ≤ were set here for values at or beyond the usual limits of such assays
HLA-A*24:02 = experiment: as above; details: source organism: Dengue virus 1 Brazil/97-11/1997
HLA-B*08:01 = experiment: as above
HLA-A*02:02 = experiment: as above; details: source organism: Vaccinia virus WR
HLA-A*02:03 = experiment: as above; details: source organism: Vaccinia virus WR
HLA-A*02:06 = experiment: as above; details: source organism: Vaccinia virus WR
HLA-A*02:01 [1] = experiment: IEDB peptide-MHC binding, purified MHC/competitive/fluorescence; ≥ and ≤ were set here for values at or beyond the usual limits of such assays
HLA-A*30:01 = experiment: IEDB peptide-MHC binding, purified MHC/competitive/radioactivity; filed as Kd, often an IC50 or EC50 that approximates it; ≥ and ≤ were set here for values at or beyond the usual limits of such assays
HLA-A*01:01 = experiment: as above
HLA-A*02:01 [2] = experiment: IEDB peptide-MHC binding, purified MHC/direct/fluorescence; filed as Kd, often an IC50 or EC50 that approximates it; ≥ and ≤ were set here for values at or beyond the usual limits of such assays; details: source organism: Vibrio alginolyticus 12G01
HLA-A*69:01 = experiment: as above; details: source organism: Vibrio alginolyticus 12G01
HLA-A*03:01 = experiment: IEDB peptide-MHC binding, purified MHC/competitive/radioactivity; filed as Kd, often an IC50 or EC50 that approximates it; ≥ and ≤ were set here for values at or beyond the usual limits of such assays; details: source organism: Vaccinia virus WR
HLA-A*11:01 = experiment: as above; details: source organism: Vaccinia virus WR
HLA-A*31:01 = experiment: as above; details: source organism: Vaccinia virus WR
HLA-A*33:01 = experiment: as above; details: source organism: Vaccinia virus WR
HLA-A*68:01 = experiment: as above; details: source organism: Vaccinia virus WR
[3] = source organism: Dengue virus 1 Brazil/97-11/1997
[4] = source organism: Dengue virus 2 Jamaica/1409/1983
[5] = source organism: Dengue virus 3 Martinique/1243/1999
[6] = source organism: Dengue virus 4 Philippines/H241/1956
[7] = source organism: Vaccinia virus WR

Sequence: TWKLARASF
Kd (HLA-A*23:01; [3]): 218 nM
Kd (HLA-A*24:02): 224 nM

Sequence: VDRKGKVVGL
Kd (HLA-B*08:01; [4]): 6320 nM

Sequence: VLEKKVCAI
Kd (HLA-A*02:02): 14400 nM
Kd (HLA-A*02:03): 2310 nM
Kd (HLA-A*02:06): 3390 nM

Sequence: VLLNAPSEA
IC50 (HLA-A*02:01 [1]; source organism: Human alphaherpesvirus 1 strain 17): 19 nM

Sequence: VLLPFYETL
Kd (HLA-A*02:02): 4060 nM
Kd (HLA-A*02:03): 267 nM
Kd (HLA-A*02:06): 218 nM

IC50 (HLA-A*02:01 [1]; source organism: Homo sapiens): 2080 nM
Sequence: VLVHPQWVL

Sequence: VMKIGIGVLL
Kd (HLA-B*08:01; [5]): 516 nM

Sequence: VMKRYSAPFE
Kd (HLA-A*30:01; [6]): 5920 nM

Sequence: VQLSNNKYVL
Kd (HLA-A*02:02): 288 nM
Kd (HLA-A*02:03): 9490 nM
Kd (HLA-A*02:06): 170 nM

Sequence: VTEKDSPVNI
Kd (HLA-A*01:01; [4]): ≥ 40900 nM

Sequence: VTFINDYANL
Kd (HLA-A*02:02): 99.1 nM
Kd (HLA-A*02:03): 247 nM
Kd (HLA-A*02:06): 148 nM

Sequence: VTKSSSWKDV
Kd (HLA-A*02:02): ≥ 70000 nM
Kd (HLA-A*02:03): ≥ 41900 nM
Kd (HLA-A*02:06): ≥ 69800 nM

Sequence: VVRGIDGGV
Kd (HLA-A*02:01 [2]): ≥ 20000 nM
Kd (HLA-A*69:01): ≥ 20000 nM

Sequence: VWEVEDYGF
Kd (HLA-A*23:01; [5]): 296 nM

Sequence: VYPMSIPATL
Kd (HLA-A*23:01; [3]): 6.39 nM
Kd (HLA-A*24:02): 78.1 nM

Sequence: WFVERNMVI
Kd (HLA-A*23:01; [5]): 340 nM

Sequence: WMDLLRALI
Kd (HLA-A*01:01; [6]): 9950 nM

Sequence: WTMKIGIGIL
Kd (HLA-B*08:01; [3]): 342 nM

Sequence: YKKLKFRFI
Kd (HLA-B*08:01; [7]): 196 nM

Sequence: YLSGTDDEVI
Kd (HLA-A*02:02): 6.26 nM
Kd (HLA-A*02:03): 211 nM
Kd (HLA-A*02:06): 947 nM

Sequence: YLYNKYSFKL
Kd (HLA-A*02:02): 0.109 nM
Kd (HLA-A*02:03): 0.0349 nM
Kd (HLA-A*02:06): 0.14 nM

Sequence: YSHGDIKAS
IC50 (HLA-A*02:01 [1]; [7]): ≥ 72000 nM

Sequence: YTFFSYLMK
Kd (HLA-A*03:01): 9.77 nM
Kd (HLA-A*11:01): 0.563 nM
Kd (HLA-A*30:01; [7]): 473 nM
Kd (HLA-A*31:01): 3960 nM
Kd (HLA-A*33:01): 3010 nM
Kd (HLA-A*68:01): 0.813 nM
